# Data from paper PMC4357008.
# B1: EAAT2: EAAT2ΔG (protein)
# parent chain: MASTEGANNMPKQVEVRMHDSHLSSDEPKHRNLGMRMCDKLGKNLLLSLTVFGVILGAVCGGLLRLASPIHPDVVMLIAFPGDILMRMLKMLILPLIISSLITGLSGLDAKASGRLGTRAMVYYMSTTIIAAVLGVILVLAIHPGNPKLKKQLGPGKKNDEVSSLDAFLDLIRNLFPENLVQACFQQIQTVTKKVLVAPPSEEANTTKAVISMLNETMNEAPEETKIVIKKGLEFKDGMNVLGLIGFFIAFGIAMGKMGEQAKLMVEFFNILNEIVMKLVIMIMWYSPLGIACLICGKIIAIKDLEVVARQLGMYMITVIVGLIIHGGIFLPLIYFVVTRKNPFSFFAGIFQAWITALGTASSAGTLPVTFRCLEDNLGIDKRVTRFVLPVGATINMDGTALYEAVAAIFIAQMNGVILDGGQIVTVSLTATLASIGAASIPSAGLVTMLLILTAVGLPTEDISLLVAVDWLLDRMRTSVNVVGDSFGAGIVYHLSKSELDTIDSQHRMQEDIEMTKTQSIYDDKNHRESNSNQCVYAAHNSVVIDECKVTLAANGKSADCSVEEEPWKREK
# Key:
# [1] = confocal imaging, filopodia tip/shaft intensity ratio, COS-7; conditions: glycan lost; control: mEGFP-EAAT2 wild type
# [2] = confocal imaging, filopodia shaft/cell body ratio, Lck-mCherry normalised; conditions: glycan lost; control: mEGFP-EAAT2 wild type
protein,measurement,setting,value
B1,"localisation_or_trafficking, other: tip/shaft density ratio",[1],"increases, 2.8 vs 1.5"
same,"localisation_or_trafficking, other: shaft/cell body density ratio",[2],"decreases, 1.7 vs 2.7"
